Publication PMC9352680, “A comprehensive thermodynamic model for RNA binding by the Saccharomyces cerevisiae Pumilio protein PUF4”

T1: PUF4 RNA-binding domain (Saccharomyces cerevisiae, UniProt P25339 537-888)
T1 sequence: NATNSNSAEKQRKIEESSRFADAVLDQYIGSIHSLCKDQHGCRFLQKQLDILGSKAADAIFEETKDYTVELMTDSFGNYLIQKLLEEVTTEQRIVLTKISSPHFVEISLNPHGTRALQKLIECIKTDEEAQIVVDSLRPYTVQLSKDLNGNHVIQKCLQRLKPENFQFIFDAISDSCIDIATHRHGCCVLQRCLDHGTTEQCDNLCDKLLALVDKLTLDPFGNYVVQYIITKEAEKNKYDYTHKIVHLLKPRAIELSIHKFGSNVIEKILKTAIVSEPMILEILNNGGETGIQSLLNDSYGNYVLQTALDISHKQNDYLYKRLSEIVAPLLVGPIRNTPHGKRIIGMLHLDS


target: T1, PUF4 RNA-binding domain; experiment: Mg; RNA-MaP; 20 mM Na-HEPES pH 7.4, 30 mM KOAc, 0.75 mM MgCl2, 0.1% Tween-20, 5% glycerol, 0.1 mg/mL BSA, 2 mM DTT; 25 C; 0.0125-409.6 nM protein; conditions: tags: N-His6-TEV cleaved; C-SNAP kept, Cy3B-labelled; label: tethered on chip by stalled RNA polymerase

Binder	Kd [nM]
ACAAACAGGUAUAUAUAUAACAAAC (ssRNA) [Id_i_S3_P3E.6_K3.2_C3.3_[T-3A]_[C-2G]_[T-1G]_H3.2_A3.1_F3.1_T3.2]	566
UCUCUUGUUGUAUAUACCUCUCUU (ssRNA) [Id_ii_S1_P3E.2_K3.1_C3.2_[C-2G]_H3.1_A3.1_F3.1_T3.2_[T9C]_[A10C]]	20.1
Id_i_S4_P3E.5_K3.1_C3.3_[T-3C]_[C-2G]_[T-1C]_H3.1_A3.1_F3.1_T3.2 (ssRNA) RNA: UUUGACAACUGAUCGUUCUUUCUCGCUGUAUAUAUAUUCUUUCUCGAUCAGUUGUCUUU	1.51
Id_i_S4_P3E.7_K3.3_C3.3_[T-3C]_[C-2T]_[T-1A]_H3.3_A3.1_F3.1_T3.2 (ssRNA) RNA: UUUGACAACUGAUCGUUCUUUCUCUAACACUAUAUAUUCUUUCUCGAUCAGUUGUCUUU	113
Id_i_S4_P3E.7_K3.3_C3.3_[T-3A]_[C-2T]_[T-1A]_H3.3_A3.1_F3.1_T3.2 (ssRNA) RNA: UUUGACAACUGAUCGUUCUUUCUAUAACACUAUAUAUUCUUUCUCGAUCAGUUGUCUUU	571
Id_i_S4_P3E.7_K3.3_C3.3_[T-3C]_[C-2A]_[T-1G]_H3.3_A3.1_F3.1_T3.2 (ssRNA) RNA: UUUGACAACUGAUCGUUCUUUCUCAGACACUAUAUAUUCUUUCUCGAUCAGUUGUCUUU	572
Id_i_S4_P3E.7_K3.3_C3.3_[T-3C]_[C-2T]_[T-1G]_H3.3_A3.1_F3.1_T3.2 (ssRNA) RNA: UUUGACAACUGAUCGUUCUUUCUCUGACACUAUAUAUUCUUUCUCGAUCAGUUGUCUUU	424
Id_i_S4_P3E.6_K3.2_C3.3_[T-3C]_[C-2A]_[T-1C]_H3.2_A3.1_F3.1_T3.2 (ssRNA) RNA: UUUGACAACUGAUCGUUCUUUCUCACUAUAUAUAUAUUCUUUCUCGAUCAGUUGUCUUU	56.5
Id_i_S4_P3E.6_K3.2_C3.3_[T-3A]_[C-2G]_[T-1C]_H3.2_A3.1_F3.1_T3.2 (ssRNA) RNA: UUUGACAACUGAUCGUUCUUUCUAGCUAUAUAUAUAUUCUUUCUCGAUCAGUUGUCUUU	537
Id_i_S4_P3E.7_K3.3_C3.3_[T-3A]_[C-2A]_[T-1A]_H3.3_A3.1_F3.1_T3.2 (ssRNA) RNA: UUUGACAACUGAUCGUUCUUUCUAAAACACUAUAUAUUCUUUCUCGAUCAGUUGUCUUU	451
Id_i_S4_P3E.6_K3.2_C3.3_[T-3C]_[C-2T]_[T-1A]_H3.2_A3.1_F3.1_T3.2 (ssRNA) RNA: UUUGACAACUGAUCGUUCUUUCUCUAUAUAUAUAUAUUCUUUCUCGAUCAGUUGUCUUU	500
Id_i_S4_P3E.5_K3.1_C3.3_[T-3C]_[C-2T]_[T-1G]_H3.1_A3.1_F3.1_T3.2 (ssRNA) RNA: UUUGACAACUGAUCGUUCUUUCUCUGUGUAUAUAUAUUCUUUCUCGAUCAGUUGUCUUU	1.5
Id_i_S4_P3E.6_K3.2_C3.3_[T-3C]_[C-2T]_[T-1G]_H3.2_A3.1_F3.1_T3.2 (ssRNA) RNA: UUUGACAACUGAUCGUUCUUUCUCUGUAUAUAUAUAUUCUUUCUCGAUCAGUUGUCUUU	1.92
Id_i_S4_P3E.7_K3.3_C3.3_[T-3A]_[C-2T]_[T-1C]_H3.3_A3.1_F3.1_T3.2 (ssRNA) RNA: UUUGACAACUGAUCGUUCUUUCUAUCACACUAUAUAUUCUUUCUCGAUCAGUUGUCUUU	346
Id_i_S4_P3E.7_K3.3_C3.3_[T-3C]_[C-2A]_[T-1A]_H3.3_A3.1_F3.1_T3.2 (ssRNA) RNA: UUUGACAACUGAUCGUUCUUUCUCAAACACUAUAUAUUCUUUCUCGAUCAGUUGUCUUU	110
Id_i_S4_P3E.5_K3.1_C3.3_[T-3A]_[C-2T]_[T-1C]_H3.1_A3.1_F3.1_T3.2 (ssRNA) RNA: UUUGACAACUGAUCGUUCUUUCUAUCUGUAUAUAUAUUCUUUCUCGAUCAGUUGUCUUU	1.98
Id_i_S4_P3E.6_K3.2_C3.3_[T-3G]_[C-2G]_[T-1C]_H3.2_A3.1_F3.1_T3.2 (ssRNA) RNA: UUUGACAACUGAUCGUUCUUUCUGGCUAUAUAUAUAUUCUUUCUCGAUCAGUUGUCUUU	1420
UCUCUUGCUGUAUAUAUCUCUCUU (ssRNA) [Id_ii_S1_P3E.2_K3.1_C3.2_[C-2G]_[T-1C]_H3.1_A3.1_F3.1_T3.2_[A10C]]	12.6
ACAAACGGAACACUAUAUAACAAAC (ssRNA) [Id_i_S3_P3E.7_K3.3_C3.3_[T-3G]_[C-2G]_[T-1A]_H3.3_A3.1_F3.1_T3.2]	1440
UCUCUUGCUGUAUAUAAUUCUCUU (ssRNA) [Id_ii_S1_P3E.2_K3.1_C3.2_[C-2G]_[T-1C]_H3.1_A3.1_F3.1_T3.2_[T9A]_[A10T]]	12.4
UCUCUUGCUGUAUAUAUUUCUCUU (ssRNA) [Id_ii_S1_P3E.2_K3.1_C3.2_[C-2G]_[T-1C]_H3.1_A3.1_F3.1_T3.2_[A10T]]	12.9
UCUCUUGGUGUAUAUAGUUCUCUU (ssRNA) [Id_ii_S1_P3E.2_K3.1_C3.2_[C-2G]_[T-1G]_H3.1_A3.1_F3.1_T3.2_[T9G]_[A10T]]	6.96
UCUCUUAGUGUAUUAUCUCUU (ssRNA) [Ib_S1_P4E.1_K4.1_C4.1_H4.1_[T1A]_[A4G]_A4.1_F4.1_T4.1]	64
UCUCUUGUUGUAUAUAAUUCUCUU (ssRNA) [Id_ii_S1_P3E.2_K3.1_C3.2_[C-2G]_H3.1_A3.1_F3.1_T3.2_[T9A]_[A10T]]	9.55
UCUCUUGCUGUAUAUAUGUCUCUU (ssRNA) [Id_ii_S1_P3E.2_K3.1_C3.2_[C-2G]_[T-1C]_H3.1_A3.1_F3.1_T3.2_[A10G]]	12.4

Binder	Kd [nM]
ACAAACCAAACACUAUAUAACAAAC (ssRNA) [Id_i_S3_P3E.7_K3.3_C3.3_[T-3C]_[C-2A]_[T-1A]_H3.3_A3.1_F3.1_T3.2]	> 2300
UCUCUUAGCAUAUUAUCUCUU (ssRNA) [Ib_S1_P4E.1_K4.1_C4.1_H4.1_[T1A]_[T3C]_A4.1_F4.1_T4.1]	1930
Id_i_S4_P3E.2_K3.1_C3.2_[C-2T]_[T-1G]_H3.1_A3.1_F3.1_T3.2 (ssRNA) RNA: UUUGACAACUGAUCGUUCUUUCUUGUGUAUAUAUAUUCUUUCUCGAUCAGUUGUCUUU	1.47
Id_i_S4_P3E.2_K3.1_C3.2_[C-2T]_[T-1A]_H3.1_A3.1_F3.1_T3.2 (ssRNA) RNA: UUUGACAACUGAUCGUUCUUUCUUAUGUAUAUAUAUUCUUUCUCGAUCAGUUGUCUUU	4.77
Id_i_S4_P3E.4_K3.3_C3.2_[C-2A]_[T-1C]_H3.3_A3.1_F3.1_T3.2 (ssRNA) RNA: UUUGACAACUGAUCGUUCUUUCUACACACUAUAUAUUCUUUCUCGAUCAGUUGUCUUU	295
Id_i_S4_P3E.3_K3.2_C3.2_[C-2T]_[T-1C]_H3.2_A3.1_F3.1_T3.2 (ssRNA) RNA: UUUGACAACUGAUCGUUCUUUCUUCUAUAUAUAUAUUCUUUCUCGAUCAGUUGUCUUU	68.1
Id_ii_S4_P3E.4_K3.3_C3.2_[C-2G]_[T-1C]_H3.3_A3.1_F3.1_T3.2 (ssRNA) RNA: UUUGACAACUGAUCGUUCUUUCUGCACACUAUAUAUUCUUUCUCGAUCAGUUGUCUUU	30.3
Id_i_S4_P3E.3_K3.2_C3.2_[C-2T]_[T-1G]_H3.2_A3.1_F3.1_T3.2 (ssRNA) RNA: UUUGACAACUGAUCGUUCUUUCUUGUAUAUAUAUAUUCUUUCUCGAUCAGUUGUCUUU	4.75
Id_i_S4_P3E.2_K3.1_C3.2_[C-2T]_[T-1C]_H3.1_A3.1_F3.1_T3.2 (ssRNA) RNA: UUUGACAACUGAUCGUUCUUUCUUCUGUAUAUAUAUUCUUUCUCGAUCAGUUGUCUUU	0.82
Id_i_S4_P3E.4_K3.3_C3.2_[C-2T]_[T-1C]_H3.3_A3.1_F3.1_T3.2 (ssRNA) RNA: UUUGACAACUGAUCGUUCUUUCUUCACACUAUAUAUUCUUUCUCGAUCAGUUGUCUUU	202
UCUCUUCGUGUAUUAUCUCUU (ssRNA) [Ib_S1_P4E.1_K4.1_C4.1_H4.1_[T1C]_[A4G]_A4.1_F4.1_T4.1]	33.2
UCUCUUGUUGUAUAUAGUUCUCUU (ssRNA) [Id_ii_S1_P3E.2_K3.1_C3.2_[C-2G]_H3.1_A3.1_F3.1_T3.2_[T9G]_[A10T]]	4.57
UCUCUUGCUGUAUAUACCUCUCUU (ssRNA) [Id_ii_S1_P3E.2_K3.1_C3.2_[C-2G]_[T-1C]_H3.1_A3.1_F3.1_T3.2_[T9C]_[A10C]]	17.3
UCUCUUGCUGUAUAUAAAUCUCUU (ssRNA) [Id_ii_S1_P3E.2_K3.1_C3.2_[C-2G]_[T-1C]_H3.1_A3.1_F3.1_T3.2_[T9A]]	15.5
UCUCUUGGUGUAUAUAAUUCUCUU (ssRNA) [Id_ii_S1_P3E.2_K3.1_C3.2_[C-2G]_[T-1G]_H3.1_A3.1_F3.1_T3.2_[T9A]_[A10T]]	16.3
ACAAACAUCACACUAUAUAACAAAC (ssRNA) [Id_i_S3_P3E.7_K3.3_C3.3_[T-3A]_[C-2T]_[T-1C]_H3.3_A3.1_F3.1_T3.2]	2250
UCUCUUGGUGUAUAUAUUUCUCUU (ssRNA) [Id_ii_S1_P3E.2_K3.1_C3.2_[C-2G]_[T-1G]_H3.1_A3.1_F3.1_T3.2_[A10T]]	15.2
ACAAACCUCUAUAUAUAUAACAAAC (ssRNA) [Id_i_S3_P3E.6_K3.2_C3.3_[T-3C]_[C-2T]_[T-1C]_H3.2_A3.1_F3.1_T3.2]	219
UCUCUUCGUUUAUUAUCUCUU (ssRNA) [Ib_S1_P4E.1_K4.1_C4.1_H4.1_[T1C]_[A4T]_A4.1_F4.1_T4.1]	> 2300
UCUCUUGGUGUAUAUAUGUCUCUU (ssRNA) [Id_ii_S1_P3E.2_K3.1_C3.2_[C-2G]_[T-1G]_H3.1_A3.1_F3.1_T3.2_[A10G]]	16.4
UCUCUUGCUGUAUAUAACUCUCUU (ssRNA) [Id_ii_S1_P3E.2_K3.1_C3.2_[C-2G]_[T-1C]_H3.1_A3.1_F3.1_T3.2_[T9A]_[A10C]]	18.8
ACAAACAAGUAUAUAUAUAACAAAC (ssRNA) [Id_i_S3_P3E.6_K3.2_C3.3_[T-3A]_[C-2A]_[T-1G]_H3.2_A3.1_F3.1_T3.2]	316
UCUCUUUGUAUGUUAUCUCUU (ssRNA) [Ic_S1_P4E.1_K4.1_C4.1_H4.1_A4.1_[A6G]_F4.1_T4.1]	4.82
ACAAACAUAACACUAUAUAACAAAC (ssRNA) [Id_i_S3_P3E.7_K3.3_C3.3_[T-3A]_[C-2T]_[T-1A]_H3.3_A3.1_F3.1_T3.2]	> 2300
UCUCUUGCUGUAUAUACUUCUCUU (ssRNA) [Id_ii_S1_P3E.2_K3.1_C3.2_[C-2G]_[T-1C]_H3.1_A3.1_F3.1_T3.2_[T9C]_[A10T]]	31.8
